Results taken from EP1618130B1.

Molecular target: HLA-A2 (human)

HLA-A2 high affinity positive control epitope from HIV-1 pol476-484 ([…]) (peptide)
C50: 0.2 µM
